Laboratory results from CN105330739A (WATERSTONE PHARMACEUTICALS WUHAN CO LTD, dated 2016).

Molecular target: T1, 鼠VEGF (mouse, UniProt Q00731-2 27-190, limits assumed)
T1 construct: Coated on the ELISA plate at 0.5 ug/ml; also called mouse VEGF
T1 sequence (looked up): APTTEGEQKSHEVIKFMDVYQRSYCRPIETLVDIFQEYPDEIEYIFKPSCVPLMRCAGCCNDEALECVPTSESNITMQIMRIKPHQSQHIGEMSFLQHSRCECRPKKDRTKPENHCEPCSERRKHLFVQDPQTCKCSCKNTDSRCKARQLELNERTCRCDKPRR
Test: ELISA, mouse VEGF coated at 0.5 ug/ml

- binding result: no binding
B1: NevegiMab抗体 (antibody, V domains shown)
VH: EVKLQESGPELKKPGETVKISCKASGYTFTNYGLNWVKQAPGKGLKWMGWINTYTGEPTYADDFKGRFAFSLETSASTAYLQINNLKNEDMATYFCAKYGITYEWYFDVWGAGTTVTVSS
VL: DIVLTQSTSSLSASLGDRVTISCRASQDISNSLNWYQQKPNGTVILLIYYTSRLHSGVPSRFSGSGSGAVYSLTISDLEQEDIATYFCQQGNTFPWTFGGGTKLEIKR
notes: Mouse monoclonal antibody purified from hybridoma supernatant; also called 单抗NevegiMab; 单克隆抗体NevegiMab
